Key:
Assay in all cases: SPR
[1] = molecular target: C5aR (wheat-germ proteoliposome) (human) (UniProt P21730)
[2] = molecular target: CCR2 (wheat-germ proteoliposome) (human) (UniProt P41597)
[3] = molecular target: CXCR2 (wheat-germ proteoliposome) (human) (UniProt P25025)
[4] = molecular target: CXCR1 (wheat-germ proteoliposome) (human) (UniProt P25024)
Chain of UniProt P25024 (P25024 whole entry): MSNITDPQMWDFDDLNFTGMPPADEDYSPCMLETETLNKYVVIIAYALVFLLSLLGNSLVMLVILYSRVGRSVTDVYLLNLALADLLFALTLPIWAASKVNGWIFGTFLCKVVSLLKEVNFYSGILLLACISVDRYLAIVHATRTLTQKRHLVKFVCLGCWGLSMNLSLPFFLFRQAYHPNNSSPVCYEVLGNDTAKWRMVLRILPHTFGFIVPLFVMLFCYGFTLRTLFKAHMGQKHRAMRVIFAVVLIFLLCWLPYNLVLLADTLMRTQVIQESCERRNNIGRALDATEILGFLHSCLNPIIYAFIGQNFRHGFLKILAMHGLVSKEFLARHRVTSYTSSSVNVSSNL

Chain of UniProt P25025 (P25025 whole entry): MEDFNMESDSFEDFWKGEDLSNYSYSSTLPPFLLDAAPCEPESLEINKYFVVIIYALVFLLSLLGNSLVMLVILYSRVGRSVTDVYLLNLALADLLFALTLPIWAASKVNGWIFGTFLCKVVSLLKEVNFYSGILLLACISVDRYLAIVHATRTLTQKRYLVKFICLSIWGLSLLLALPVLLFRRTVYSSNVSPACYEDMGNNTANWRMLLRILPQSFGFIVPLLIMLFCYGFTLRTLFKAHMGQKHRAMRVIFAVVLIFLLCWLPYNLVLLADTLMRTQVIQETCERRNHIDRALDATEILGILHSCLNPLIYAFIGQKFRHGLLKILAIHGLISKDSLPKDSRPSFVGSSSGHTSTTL
Chain of UniProt P21730 (P21730 whole entry): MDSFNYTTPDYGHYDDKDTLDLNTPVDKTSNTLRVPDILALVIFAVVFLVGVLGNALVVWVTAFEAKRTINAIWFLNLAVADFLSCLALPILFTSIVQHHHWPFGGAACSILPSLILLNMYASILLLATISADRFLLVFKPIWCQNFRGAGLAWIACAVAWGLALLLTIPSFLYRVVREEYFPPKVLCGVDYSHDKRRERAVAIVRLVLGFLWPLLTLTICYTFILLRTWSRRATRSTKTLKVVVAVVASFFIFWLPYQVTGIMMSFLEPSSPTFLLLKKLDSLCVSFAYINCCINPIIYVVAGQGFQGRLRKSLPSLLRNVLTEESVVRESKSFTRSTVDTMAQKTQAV

Substance	Kd [1] [nM]	Kd [2] [nM]	Kd [3] [nM]	Kd [4] [nM]
γ-Hemolysin component HlgC (from UniProt Q07227 30-315) (natural protein)	5.64			
MCP-1 (from UniProt P13500 24-99) (ligand)		0.84		
γ-Hemolysin component HlgA (from UniProt P0A074 30-309) (natural protein)		3.51	27.2	5.69
